B1: human Factor VIIa (protein)
chain: ANAFLEELRPGSLERECKEEQCSFEEAREIFKDAERTKLFWISYSDGDQCASSPCQNGGSCKDQLQSYICFCLPAFEGRNCETHKDDQLICVNENGGCEQYCSDHTGTKRSCRCHEGYSLLADGVSCTPTVEYPCGKIPILEKRNASKPQGRIVGGKVCPKGECPWQVLLLVNGAQLCGGTLINTIWVVSAAHCFDKIKNWRNLIAVLGEHDLSEHDGDEQSRRVAQVIIPSTYVPGTTNHDIALLRLHQPVVLTDHVVPLCLPERTFSERTLAFVRFSLVSGWGQLLDRGATALELMVLNVPRLMTQDCLQQSRKVGDSPNITEYMFCAGYSDGSKDSCKGDSGGPHATHYRGTWYLTGIVSWGQGCATVGHFGVYTRVSQYIEWLQKLMRSEPRPGVLLRAPFP
B2: mouse FIXa (protein)
chain: YNSGKLEEFVRGNLERECIEERCSFEEAREVFENTEKTTEFWKQYVDGDQCESNPCLNGGICKDDISSYECWCQVGFEGRNCELDATCNIKNGRCKQFCKNSPDNKVICSCTEGYQLAEDQKSCEPTVPFPCGRASISYSSKKITRAETVFSNMDYENSTEAVFIQDDITDGAILNNVTESSESLNDFTRVVGGENAKPGQIPWQVILNGEIEAFCGGAIINEKWIVTAAHCLKPGDKIEVVAGEYNIDKKEDTEQRRNVIRTIPHHQYNATINKYSHDIALLELDKPLILNSYVTPICVANREYTNIFLKFGSGYVSGWGKVFNKGRQASILQYLRVPLVDRATCLRSTTFTIYNNMFCAGYREGGKDSCEGDSGGPHVTEVEGTSFLTGIISWGEECAMKGKYGIYTKVSRYVNWIKEKTKLT

Legend:
[1] = target: T1, compound 5
T1 chain: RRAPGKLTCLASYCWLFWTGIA

[2] = target: T2, compound 1 (not fully specified)
T2 chain: KLTCLASYCWLF

| Protein | Δ kM of FVIIa, FXa generation assay [1] | Δ kcat of FVIIa, FXa generation assay [1] [fold] | Vmax, FXa generation assay [2] |
| --- | --- | --- | --- |
| B1 | 0.3 | 2420 |  |
| B2 |  |  | the Vmax is greatly reduced with mFIXa compared to hFIXa |

— patent US20140303084
